Our source for the luminescence after complementation (RLU(mutant)/RLU(WT)) values is US20140348747A1.

The target in one test is NLpep9-HT. The test can be described thus: cell-based or functional assay.
The next test addresses NLpep53-HT. Briefly: cell-based or functional assay.

Regarding NLpoly V58A, the luminescence after complementation (RLU(mutant)/RLU(WT)) with NLpep9-HT turned out to be 1.88; in the test with NLpep53-HT, 1.07.
As to NLpoly V157D, the luminescence after complementation (RLU(mutant)/RLU(WT)) stood at 4.98 with NLpep9-HT and 3.02 with NLpep53-HT.
